Data reported in publication PMC2646901, “Characterisation of receptor binding by the chemotaxis inhibitory protein of Staphylococcus aureus and the effects of the host immune response” (Molecular Immunology, 2007).

B1: human C5a receptor (C5aR) (receptor)
chain: MDSFNYTTPDYGHYDDKDTLDLNTPVDKTSNTLRVPDILALVIFAVVFLVGVLGNALVVWVTAFEAKRTINAIWFLNLAVADFLSCLALPILFTSIVQHHHWPFGGAACSILPSLILLNMYASILLLATISADRFLLVFKPIWCQNFRGAGLAWIACAVAWGLALLLTIPSFLYRVVREEYFPPKVLCGVDYSHDKRRERAVAIVRLVLGFLWPLLTLTICYTFILLRTWSRRATRSTKTLKVVVAVVASFFIFWLPYQVTGIMMSFLEPSSPTFLLLKKLDSLCVSFAYINCCINPIIYVVAGQGFQGRLRKSLPSLLRNVLTEESVVRESKSFTRSTVDTMAQKTQAV
notes: human C5a receptor (C5aR), expressed on transfected RBL-2H3 or CHO cells; also called hC5aR; RBL-C5aR; source: RBL-2H3 or CHO cells, transfected by electroporation, on cells

Assays:
[1] = target: T1, FITC-labelled recombinant CHIPS_(28–149) (Staphylococcus aureus N315 (MRSA), UniProt A6QIG7 28-149, FITC label (site not stated)); test: flow cytometry on cells; kinetics: 300 nM FITC-CHIPS(28-149) added to C5aR-transfected RBL cells, dissociation started with 14 μM unlabelled CHIPS(28-149); Kd from kobs and koff, five experiments; conditions: one partner purified
T1 construct: three N-terminal residues, GlyAlaMet, left from the vector after TEV cleavage; The discussion once calls the labelled protein of the serum assay rCHIPS_(26–141); results and methods say 28-149; also called FITC-rCHIPS_(28–149); FITC-CHIPS_(28–149); source: E. coli BL21 (DE3), purified (glutathione sepharose 4B, TEV cleavage, Mono S), FITC-labelled; not shown: GST, N-terminal, cleaved

[2] = target: B1; test: flow cytometry on cells; competition: RBL cells transfected with human C5aR pre-treated with unlabelled CHIPS or human C5a, then 210 nM FITC-rCHIPS(28-149); cell-associated fluorescence; conditions: one partner purified
[3] = target: T2, recombinant chemotaxis inhibitory protein of Staphylococcus aureus, residues 28-149 (rCHIPS_(28–149)) (Staphylococcus aureus N315 (MRSA), UniProt A6QIG7 28-149); test: ITC; CHIPS(28-149) (0.2 mM) titrated with the peptides; non-linear regression; data not shown; conditions: both partners purified
T2 construct: three N-terminal residues, GlyAlaMet, left from the vector after TEV cleavage; Uniformly 15N-labelled (isotope only) in the NMR titrations; unlabelled in ITC and in the cell assays; also called unlabelled CHIPS; ^15N-labelled CHIPS_(28–149); source: E. coli BL21 (DE3), purified (glutathione sepharose 4B, TEV cleavage, Mono S); not shown: GST, N-terminal, cleaved

[4] = target: T2, recombinant chemotaxis inhibitory …; test: NMR titration; 1H-15N HSQC of 0.7 mM 15N-CHIPS(28-149), unlabelled lyophilized ligand added to ligand:CHIPS ratios 0, 1:2, 3:4, 1:1, 5:4; 25 °C, 100 mM phosphate pH 7.0, 200 mM NaCl, 1 mM DTT, 0.5 mM EDTA; Kd from fast-exchange shift curves, averaged over residues; conditions: both partners purified

**Q.** With B1 as the binder, how does the Kd [1] read?
**A.** The Kd was 0.00722 ± 0.00666 µM.

B2: recombinant human C5a protein (rh-C5a) (ligand)
chain: TLQKKIEEIAAKYKHSVVKKCCYDGACVNNDETCEQRAARISLGPRCIKAFTECCVVASQLRANISHKDMQLGR
notes: source: expressed and purified according to a previously described protocol (Paczkowski et al., 1999)
**Q.** Which IC50 [2] does the source give for B2 here?
**A.** The IC50 was about 0.25 µM.

B3: human C5aR peptide of the N-terminal extracellular region M1-D37 with additional -APAPAC on the C-terminus (hC5aR_(1–37)) (peptide)
peptide: MDSFNYTTPDYGHYDDKDTLDLNTPVDKTSNTLRVPDAPAPAC
notes: human C5a receptor, N-terminal extracellular region, residues M1-D37; also called human C5aR_(1–37) peptide; source: gift from Dr M. Barker, Division of Genomic Medicine, Sheffield
**Q.** What does the source list for B3?
**A.** Ka [3]: 25000 M⁻¹; Kd [3]: ~40 µM; stoichiometry N [3]: 1.4 ± 0.8; Kd [4]: 8.25 µM
